The record followed here is US20200055896.

In data set [1] the test system is aP probe: FGF21-based peptide with D-alanine at P2 (VaPSQG).
The subject of data set [2] is GP probe: fluorescence-quenched peptide of the region flanking the C-terminal human FGF21 cleavage site (VGPSQG).

Sequence of PREP in mouse plasma (chain, as listed by the source): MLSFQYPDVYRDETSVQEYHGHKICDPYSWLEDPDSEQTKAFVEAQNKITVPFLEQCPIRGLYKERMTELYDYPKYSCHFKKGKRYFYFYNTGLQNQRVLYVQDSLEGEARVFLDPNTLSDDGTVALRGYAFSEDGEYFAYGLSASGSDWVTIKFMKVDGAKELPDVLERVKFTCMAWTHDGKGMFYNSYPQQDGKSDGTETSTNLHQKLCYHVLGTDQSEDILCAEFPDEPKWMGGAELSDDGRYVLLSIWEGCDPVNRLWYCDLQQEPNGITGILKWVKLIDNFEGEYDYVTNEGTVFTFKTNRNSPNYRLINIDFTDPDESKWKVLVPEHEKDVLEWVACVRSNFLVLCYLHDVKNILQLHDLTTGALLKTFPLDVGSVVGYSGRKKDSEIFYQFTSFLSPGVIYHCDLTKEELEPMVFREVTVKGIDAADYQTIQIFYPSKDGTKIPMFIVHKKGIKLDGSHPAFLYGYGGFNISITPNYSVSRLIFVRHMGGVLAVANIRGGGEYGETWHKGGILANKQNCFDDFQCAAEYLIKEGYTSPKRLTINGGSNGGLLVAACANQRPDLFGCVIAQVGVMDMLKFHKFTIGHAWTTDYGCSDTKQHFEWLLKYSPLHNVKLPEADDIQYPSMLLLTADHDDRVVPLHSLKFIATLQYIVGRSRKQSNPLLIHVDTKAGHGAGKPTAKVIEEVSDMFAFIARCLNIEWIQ

Take FAP in human serum: the “cleavage of the aP probe in immunodepleted human serum” value in data set [1] is listed as “signal is lost after FAP immunodepletion from human serum, but not in control IgG-immunodepleted serum”.
As for Human DPPII/DPP7 (3438-SE), the “cleavage of fluorescence-quenched peptide (FRET-quench assay), peptidase at 2.5 µg/ml” value in data set [1] is “did not exhibit an ability to cleave the aP probe”.
Take PREP in mouse plasma: the “cleavage of the GP probe in mouse plasma, with cpd60 and KYP-2047” value in data set [2] is given as “PREP has a smaller but significant contribution”.
